These results are taken from patent US20250206820A1 (NGM BIOPHARMACEUTICALS, published 2025).

Assay [1] concerns the target T1, human ILT3 (as used in the affinity measurements) (human, UniProt Q8NHJ6 22-259, limits assumed).
T1 construct: also called immunoglobulin-like transcript 3
Kind of assay: column 'ILT3 Affinity (nM)'; method and format not stated.

Assay [2] concerns the target T2, ILT3 on target cells (MOLM13, OCI-AML-2, NALM-1, THP-1, MM1S, H929, U226B1 and other lines) (human, UniProt Q8NHJ6 22-448). Kind of assay: cell-based or functional assay.
In assay [3] the target is T2, ILT3 on target cells (MOLM13, …). Description: cell-based or functional assay. The source holds these as a separate data set.
The target is the same in assay [4]. Description: cell-based or functional assay. This is another data set of the same source.
The target is the same in assay [5]. Description: cell-based or functional assay. This is another data set of the same source.
Assay [6] has the same target. Description: cell-based or functional assay. This is another data set of the same source.
Assay [7] shares this target. Description: cell-based or functional assay. The source holds these as a separate data set.
Assay [8] addresses T3, CD3 (as used in the affinity measurements) (human, UniProt P07766 23-126).
T3 construct: the description gives human CD3 as UniProtKB P07766; also called human CD3
Kind of assay: SPR. Background: Surface plasmon resonance follows binding to a sensor surface in real time, without labels.

For assay [9], the target named is T1, human ILT3 (as used in the affinity …). Description: comparison of the affinity of Hz45G10 for human ILT3 with that of the CD3 scFv for CD3.

Residue numbers refer to the chain shown, from its start. Read-outs that look alike come from different tables or passages of the source.

T3 sequence (P07766 23-126): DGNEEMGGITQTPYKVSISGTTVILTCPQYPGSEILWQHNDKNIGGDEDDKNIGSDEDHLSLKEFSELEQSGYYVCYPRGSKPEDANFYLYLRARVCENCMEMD

B1: 48A6 anti-ILT3 antibody (antibody, V domains shown)
VH: EVQLVESGGDLMKPGGSLKLSCAASGFTFSSYGMSWVRQTPDKRLEWVATISSGGTYTFYPDSVKGRFTISRDNAKNTLYLQMSSLKSEDTAMYYCARRGWLLHYYAMDYWGQGTSVTVSS
VL: NIVLTQSPASLAVSLGQRATISCRPSESVDSFGNSFMHWFQQKPGQPPKLLIYLSSKLESGVPARFSGSGSRTDFTLTIDPVEADDAATYYCQQHNEDPFTFGSGTKLEIK
Usually Kd stands for a measure of binding affinity in units of concentration. B1: the dissociation constant Kd in assay [1] amounted to 0.08 nM.

B2: ABX1446, ILT3xCD3 bispecific antibody, format F0 (bispecific antibody, human IgG1, kappa, L234A L235A)
chain: EVQLLESGGGLVQPGGSLKLSCAASGFTFNTYAMNWVRQAPGKCLEWVARIRSKYNNYATYYADSVKDRFTISRDDSKNTAYLQMNNLKTEDTAVYYCVRHGNFGNSYVSWFAYWGQGTLVTVSSGGGGSGGGGSGGGGSELVVTQEPSLTVSPGGTVTLTCRSSTGAVTTSNYANWVQQKPGQAPRGLIGGTNKRAPGTPARFSGSLLGGKAALTLSGVQPEDEAEYYCALWYSNLWVFGCGTKLTVLGGGGSDKTHTCPPCPAPEAAGGPSVFLFPPKPKDTLMISRTPEVTCVVVDVSHEDPEVKFNWYVDGVEVHNAKTKPREEQYNSTYRVVSVLTVLHQDWLNGKEYKCKVSNKALPAPIEKTISKAKGQPREPQVYTLPPSREEMTKNQVSLSCAVKGFYPSDIAVEWESNGQPENNYKTTPPVLDSDGSFFLVSKLTVDKSRWQQGNVFSCSVMHEALHNHYTQKSLSLSPGK
heavy: EVQLVESGGGLVQPGGSLRLSCAASGFTFSDYGMHWVRQAPGKGLEWVAYIFSGSSTIYYADTVKGRFTISRDNAKNSLYLQMNSLRAEDTAVYYCARADGRGAMDYWGQGTLVTVSSASTKGPSVFPLAPSSKSTSGGTAALGCLVKDYFPEPVTVSWNSGALTSGVHTFPAVLQSSGLYSLSSVVTVPSSSLGTQTYICNVNHKPSNTKVDKKVEPKSCDKTHTCPPCPAPEAAGGPSVFLFPPKPKDTLMISRTPEVTCVVVDVSHEDPEVKFNWYVDGVEVHNAKTKPREEQYNSTYRVVSVLTVLHQDWLNGKEYKCKVSNKALPAPIEKTISKAKGQPREPQVYTLPPSREEMTKNQVSLWCLVKGFYPSDIAVEWESNGQPENNYKTTPPVLDSDGSFFLYSKLTVDKSRWQQGNVFSCSVMHEALHNHYTQKSLSLSPGK
light: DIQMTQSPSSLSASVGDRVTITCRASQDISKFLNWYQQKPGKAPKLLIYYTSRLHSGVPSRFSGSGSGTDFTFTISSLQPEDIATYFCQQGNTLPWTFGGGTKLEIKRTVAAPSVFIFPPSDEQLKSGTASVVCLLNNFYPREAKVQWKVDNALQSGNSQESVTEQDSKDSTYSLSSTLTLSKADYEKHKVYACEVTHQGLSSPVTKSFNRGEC
For the molecule B2, in assay [2], the “PBMC Cytotoxicity, EC50 (pM), MOLM13 cells, naive T cells from PBMCs” value amounted to 46.8 pM and the “TDCC, EC50 (pM), MOLM13 cells, expanded T cells” value (“TDCC, EC50 … expanded T cells” for short) is 10.9 pM. Moreover, in assay [3], the “TDCC vs. NALM-1 Cells, EC50 (pM), expanded T cells” value came to 5.7 pM and the “TDCC vs. OCI-AML-2 Cells, EC50 (pM), expanded T cells” value amounted to 13.5 pM. Further, in assay [4], the “TDCC, EC50 (pM), H929 cells” value is 18.6 pM; the “TDCC, EC50 (pM), MM1S cells” value was 18.6 pM; the “TDCC, EC50 (pM), U226B1 cells” value amounted to 6.5 pM. For the same molecule, the “TDCC, EC50 (pM), MOLM13 cells” value in [5] was 11 pM. In [6], the “TDCC vs. NKM-1 Cells, EC50 (pM), naive T cells from PBMCs” value was determined as 20.4 pM and the “TDCC vs. OCI-AML-2 Cells, EC50 (pM), naive T cells from PBMCs” value amounted to 2.5 pM. Further, the “TDCC, EC50 … expanded T cells” value in assay [7] is 0.9 pM.

B3: ABX1520, ILT3xCD3 bispecific antibody, format F13 (bispecific antibody, human IgG1, kappa, L234A L235A)
chain: B2 chain
heavy: EVQLVESGGGLVQPGGSLRLSCAASGFTFSDYGMHWVRQAPGKGLEWVAYIFSGSSTIYYADTVKGRFTISRDNAKNSLYLQMNSLRAEDTAVYYCARADGRGAMDYWGQGTLVTVSSASTKGPSVFPLAPSSKSTSGGTAALGCLVKDYFPEPVTVSWNSGALTSGVHTFPAVLQSSGLYSLSSVVTVPSSSLGTQTYICNVNHKPSNTKVDKKVEPKSCGGGGSEVQLVESGGGLVQPGGSLRLSCAASGFTFSDYGMHWVRQAPGKGLEWVAYIFSGSSTIYYADTVKGRFTISRDNAKNSLYLQMNSLRAEDTAVYYCARADGRGAMDYWGQGTLVTVSSASTKGPSVFPLAPSSKSTSGGTAALGCLVKDYFPEPVTVSWNSGALTSGVHTFPAVLQSSGLYSLSSVVTVPSSSLGTQTYICNVNHKPSNTKVDKKVEPKSCDKTHTCPPCPAPEAAGGPSVFLFPPKPKDTLMISRTPEVTCVVVDVSHEDPEVKFNWYVDGVEVHNAKTKPREEQYNSTYRVVSVLTVLHQDWLNGKEYKCKVSNKALPAPIEKTISKAKGQPREPQVYTLPPSREEMTKNQVSLWCLVKGFYPSDIAVEWESNGQPENNYKTTPPVLDSDGSFFLYSKLTVDKSRWQQGNVFSCSVMHEALHNHYTQKSLSLSPGK
light: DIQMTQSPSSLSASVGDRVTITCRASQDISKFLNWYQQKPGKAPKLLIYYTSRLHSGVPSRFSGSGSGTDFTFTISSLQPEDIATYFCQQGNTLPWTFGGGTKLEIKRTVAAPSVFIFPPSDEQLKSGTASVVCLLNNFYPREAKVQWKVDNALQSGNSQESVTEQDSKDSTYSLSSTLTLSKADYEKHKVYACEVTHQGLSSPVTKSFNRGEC
Take B3: in assay [2], the “PBMC Cytotoxicity, EC50 (pM), MOLM13 cells, naive T cells from PBMCs” value came out at 53.7 pM and the “TDCC, EC50 … expanded T cells” value amounted to 1.4 pM. In [3], the “TDCC vs. NALM-1 Cells, EC50 (pM), expanded T cells” value stood at 3.6 pM and the “TDCC vs. OCI-AML-2 Cells, EC50 (pM), expanded T cells” value was determined as 23.3 pM. In assay [6], the “TDCC vs. NKM-1 Cells, EC50 (pM), naive T cells from PBMCs” value was found to be 2.6 pM and the “TDCC vs. OCI-AML-2 Cells, EC50 (pM), naive T cells from PBMCs” value came to 2 pM.

B4: anti-CD3 scFv clone (VH as SEQ ID NO: 149, VL as SEQ ID NO: 150) (scFv)
scFv: EVQLLESGGGLVQPGGSLKLSCAASGFTFNTYAMNWVRQAPGKCLEWVARIRSKYNNYATYYADSVKDRFTISRDDSKNTAYLQMNNLKTEDTAVYYCVRHGNFGNSYVSWFAYWGQGTLVTVSSGGGGSGGGGSGGGGSELVVTQEPSLTVSPGGTVTLTCRSSTGAVTTSNYANWVQQKPGQAPRGLIGGTNKRAPGTPARFSGSLLGGKAALTLSGVQPEDEAEYYCALWYSNLWVFGCGTKLTVL
notes: also called the CD3 scFv
B4: binding in [8] was put at a Kd of 6 nM.

B5: 16C5 anti-ILT3 antibody (antibody, V domains shown)
VH: EVQLQQSGPELVKPGASVKISCKASGYTFTDYNMDWVKQSHGKSLEWIGYIYPSNGGTGYNQKFKSKATLTVDKSSNTAYMELHSLTSEDSAVYYCARVPYYDYLYYYAMDYWGQGTSVTVSS
VL: QIVLSQSPAILSASPGEKVTMACRASSSVSFMHWYQQKPGSSPQPWIYATSNLASGVPARFSGSGSGTSYSLTISRVEAEDAATYYCQQWSTNPYMYTFGGGTKLEIK
With B5, the Kd in [1] is 0.7 nM.

B6: 12A12 anti-ILT3 antibody (antibody, V domains shown)
VH: B5 VH with S54N, K65N, N77S, R98S, V99S, L105V, Y106G, Y107S
VL: QIVLTQSPAIMSASLGERVTMTCTASSSVSSSYLHWYQQKPGSSPKLWIYSTSNLASGVPARFSGSGSGTSYSLTISSMEAEDAATYYCHQYHRSPRTFGGGTKLEIK
For the molecule B6, the Kd in [1] is 8.5 nM.

B7: Hz45G10 anti-ILT3 antibody (antibody, V domains shown)
VH: EVQLVESGGGLVQPGGSLRLSCAASGFTFSDYGMHWVRQAPGKGLEWVAYIFSGSSTIYYADTVKGRFTISRDNAKNSLYLQMNSLRAEDTAVYYCARADGRGAMDYWGQGTLVTVSS
VL: DIQMTQSPSSLSASVGDRVTITCRASQDISKFLNWYQQKPGKAPKLLIYYTSRLHSGVPSRFSGSGSGTDFTFTISSLQPEDIATYFCQQGNTLPWTFGGGTKLEIK
Consider B7, for which, in assay [9], the “fold higher affinity than the CD3 scFv (for CD3)” value was found to be 38 fold. Also, binding in assay [1] was put at a Kd of 0.13 nM.

B8: 3A3 anti-ILT3 antibody (antibody, V domains shown)
VH: QVQLKESGPGLVAPSQSLSITCTVSGFSLTSYGVHWVRQPPGKGLEWLGVIWPGGTINYNSALMSRLSISKDNSKSQVFLKLNSLQTDDTAMYYCASDKYDGGWFAYWGQGTLVTVSA
VL: DIVMTQSQKFMSTSVGDRVSITCKASQNVRTAVAWYQQKPGQSPEALIYLASNRHTGVPDRFTGSGSGTDFSLSISNVQSEDLADYFCLQHLNYPLTFGSGTKLEIK
Consider B8, for which the Kd in assay [1] stood at 2 nM. This lies in the single-digit nanomolar range.

B9: 53F10 anti-ILT3 antibody (antibody, V domains shown)
VH: EVQVVESGGGLVKPGGSLKLSCAASGFTFSDYGMHWVRQAPEKGLEWVAYISTGIITVYYADTVKGRFTMSRDNAKNTLFLQMTSLRSEDTAIYYCARADGRGAMDYWGQGTSVIVSS
VL: DIQMTQTTSSLSASLGDRVTISCRASQDISNFLNWYQQKPDGTVTLLIYYTSRLHSGVPSRFSGSGSGTDYSLTISNLEQEDFATYFCQQGNTLPWTFGGGTKLEIK
Turning to B9, in assay [1], the Kd is 0.25 nM. This Kd is about 8-fold lower than that of the molecule before.
